The values below come from patent US20230338555A1 (IONIS PHARMACEUTICALS, published 2023).

Read-outs that look alike come from different tables or passages of the source. Ends that are not written are not given here.

Assay in all cases: cell-based or functional assay
Assay [1] concerns the target T1, human sortilin stably expressed on HEK 293 cells (HEK-SORT1 cells) (human, UniProt Q99523 78-831).
T1 sequence (looked up): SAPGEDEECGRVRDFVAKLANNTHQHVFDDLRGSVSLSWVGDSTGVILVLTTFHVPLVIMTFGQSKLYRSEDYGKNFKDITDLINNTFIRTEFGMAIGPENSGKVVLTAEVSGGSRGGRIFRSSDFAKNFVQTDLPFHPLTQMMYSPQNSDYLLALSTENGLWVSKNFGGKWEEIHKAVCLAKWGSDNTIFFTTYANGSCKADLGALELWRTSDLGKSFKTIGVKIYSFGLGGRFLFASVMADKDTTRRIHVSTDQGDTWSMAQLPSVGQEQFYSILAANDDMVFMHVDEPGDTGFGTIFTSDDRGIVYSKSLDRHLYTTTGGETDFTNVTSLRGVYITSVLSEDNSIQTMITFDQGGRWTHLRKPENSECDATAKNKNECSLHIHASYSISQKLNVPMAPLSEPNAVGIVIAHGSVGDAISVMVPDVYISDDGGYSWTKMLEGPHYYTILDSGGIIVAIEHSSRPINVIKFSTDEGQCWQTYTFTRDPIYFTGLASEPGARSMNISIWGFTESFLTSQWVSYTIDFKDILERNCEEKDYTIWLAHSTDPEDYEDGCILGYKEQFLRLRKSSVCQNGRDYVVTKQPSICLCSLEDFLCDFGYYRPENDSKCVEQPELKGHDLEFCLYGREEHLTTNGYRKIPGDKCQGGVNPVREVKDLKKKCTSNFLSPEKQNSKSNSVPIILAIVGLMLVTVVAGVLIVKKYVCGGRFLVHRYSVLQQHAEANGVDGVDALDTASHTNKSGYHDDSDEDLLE

Assay [2] deals with T1, human sortilin stably expressed on HEK …. This is another data set of the same source.
For assay [3] the target is unchanged. This is another data set of the same source.
Assay [4] shares this target. This is another data set of the same source.
The target is the same in assay [5]. This is another data set of the same source.
For assay [6] the target is unchanged. The source holds these as a separate data set.
Assay [7] has the same target. The source holds these as a separate data set.
Assay [8] shares this target. The source holds these as a separate data set.

B1: Compound No. 1162756, extended neurotensin (eNT, XPPPAGSSPGLYENKPRRPYIL) conjugated to 20-mer MOE oligonucleotide with 3'-Cy3 (peptide)
peptide: KPPPAGSSPGLYENKPRRPYIL
modifications: not fully specified (residue 1); also: X side chain clicked via BCN (triazole) and 6-aminohexanol linker to 5' end of oligonucleotide CCAGGCTGGTTATGACTCAG (MOE, 3'-Cy3)
For the molecule B1, in assay [1], the “Mean Fluorescence Intensity (MFI), uptake 37C-4C, at 7 nM” value (“Mean Fluorescence Intensity … at 7 nM” below) turned out to be 51 MFI; the “Mean Fluorescence Intensity (MFI), uptake 37C-4C, at 22 nM” value (“Mean Fluorescence Intensity … at 22 nM” for short) was determined as 122 MFI; the “Mean Fluorescence Intensity (MFI), uptake 37C-4C, at 76 nM” value (shortened to “Mean Fluorescence Intensity … at 76 nM”) amounted to 309 MFI; the “Mean Fluorescence Intensity (MFI), uptake 37C-4C, at 260 nM” value (“Mean Fluorescence Intensity … at 260 nM” below) worked out at 937 MFI. For the same molecule, in assay [1], the “Mean Fluorescence Intensity (MFI), uptake 37C-4C, at 882 nM” value (shortened to “Mean Fluorescence Intensity … at 882 nM”) amounted to 2070 MFI and the “Mean Fluorescence Intensity (MFI), uptake 37C-4C, at 3000 nM” value (“Mean Fluorescence Intensity … at 3000 nM” for short) was 3380 MFI. Also, in assay [2], the “Mean Fluorescence Intensity (MFI), uptake 37C-4C, at 12 nM” value (shortened to “Mean Fluorescence Intensity … at 12 nM”) stood at 61 MFI; the “Mean Fluorescence Intensity (MFI), uptake 37C-4C, at 37 nM” value (shortened to “Mean Fluorescence Intensity … at 37 nM”) came out at 124 MFI; the “Mean Fluorescence Intensity (MFI), uptake 37C-4C, at 111 nM” value (“Mean Fluorescence Intensity … at 111 nM” below) was determined as 364 MFI; the “Mean Fluorescence Intensity (MFI), uptake 37C-4C, at 333 nM” value (shortened to “Mean Fluorescence Intensity … at 333 nM”) amounted to 839 MFI. Also, the “Mean Fluorescence Intensity (MFI), uptake 37C-4C, at 1000 nM” value (“Mean Fluorescence Intensity … at 1000 nM” below) in assay [2] is 1560 MFI. In addition, in assay [3], the “Mean Fluorescence Intensity … at 7 nM” value was 53 MFI; the “Mean Fluorescence Intensity … at 22 nM” value was found to be 102 MFI; the “Mean Fluorescence Intensity … at 76 nM” value is 259 MFI; the “Mean Fluorescence Intensity … at 260 nM” value is 817 MFI. In assay [3], the “Mean Fluorescence Intensity … at 882 nM” value is 2100 MFI and the “Mean Fluorescence Intensity … at 3000 nM” value was 4220 MFI. Further, in assay [4], the “Mean Fluorescence Intensity … at 12 nM” value turned out to be 67 MFI; the “Mean Fluorescence Intensity … at 37 nM” value turned out to be 119 MFI; the “Mean Fluorescence Intensity … at 111 nM” value was 246 MFI; the “Mean Fluorescence Intensity … at 333 nM” value came out at 812 MFI. The “Mean Fluorescence Intensity … at 1000 nM” value in assay [4] is 1390 MFI.

B2: Compound No. 1162754, KNT neurotensin peptide conjugated to 20-mer uniform 2'-MOE phosphodiester oligonucleotide with 3'-Cy3 (peptide)
peptide: XLYENKPRRPYIL
modifications: not fully specified; position 1 printed dK (X = 2-azido-acetyl lysine); side chain joined via triazolo-BCN carbamate / 6-aminohexanol linker to the 5' end of oligonucleotide … (SEQ ID NO 2, uniform MOE, phosphodiester, 3'-Cy3)
For B2, in assay [5], the “Mean Fluorescence Intensity … at 12 nM” value is 67 MFI; the “Mean Fluorescence Intensity … at 111 nM” value amounted to 85 MFI; the “Mean Fluorescence Intensity … at 333 nM” value worked out at 123 MFI; the “Mean Fluorescence Intensity … at 1000 nM” value came to 192 MFI. In addition, in assay [5], the “Mean Fluorescence Intensity … at 3000 nM” value is 427 MFI. Further, in assay [6], the “Mean Fluorescence Intensity … at 12 nM” value came out at 43 MFI; the “Mean Fluorescence Intensity … at 37 nM” value is 54 MFI; the “Mean Fluorescence Intensity … at 111 nM” value was 71 MFI; the “Mean Fluorescence Intensity … at 333 nM” value was 171 MFI. The “Mean Fluorescence Intensity … at 1000 nM” value in assay [6] was found to be 293 MFI. Further, in assay [3], the “Mean Fluorescence Intensity … at 7 nM” value is 43 MFI; the “Mean Fluorescence Intensity … at 22 nM” value stood at 50 MFI; the “Mean Fluorescence Intensity … at 76 nM” value came out at 73 MFI; the “Mean Fluorescence Intensity … at 260 nM” value worked out at 145 MFI. For the same molecule, in assay [3], the “Mean Fluorescence Intensity … at 882 nM” value was 381 MFI and the “Mean Fluorescence Intensity … at 3000 nM” value turned out to be 1300 MFI. In assay [4], the “Mean Fluorescence Intensity … at 12 nM” value was 43 MFI; the “Mean Fluorescence Intensity … at 37 nM” value was 54 MFI; the “Mean Fluorescence Intensity … at 111 nM” value was 71 MFI; the “Mean Fluorescence Intensity … at 333 nM” value came to 171 MFI. The “Mean Fluorescence Intensity … at 1000 nM” value in assay [4] is 293 MFI. In assay [7], the “Mean Fluorescence Intensity … at 12 nM” value turned out to be 54 MFI; the “Mean Fluorescence Intensity … at 37 nM” value came out at 66 MFI; the “Mean Fluorescence Intensity … at 111 nM” value turned out to be 101 MFI; the “Mean Fluorescence Intensity … at 333 nM” value was found to be 205 MFI. Moreover, in assay [7], the “Mean Fluorescence Intensity … at 1000 nM” value turned out to be 370 MFI. In assay [8], the “Mean Fluorescence Intensity … at 12 nM” value stood at 38 MFI; the “Mean Fluorescence Intensity … at 37 nM” value came out at 47 MFI; the “Mean Fluorescence Intensity … at 333 nM” value came to 143 MFI; the “Mean Fluorescence Intensity … at 1000 nM” value worked out at 371 MFI.

B3: Compound No. 18-AJ9998, Morpholino oligomer-neurotensin conjugate 11 (Cy3 labeled) (peptide)
peptide: XLYENKPRRPYIL
modifications: X at position 1 is 2-azido-acetyl lysine joined via BCN to a Cy3-labeled phosphorodiamidate morpholino oligomer
For B3, in assay [5], the “Mean Fluorescence Intensity … at 12 nM” value is 70 MFI; the “Mean Fluorescence Intensity … at 37 nM” value is 75 MFI; the “Mean Fluorescence Intensity … at 111 nM” value was found to be 86 MFI; the “Mean Fluorescence Intensity … at 333 nM” value was determined as 138 MFI. Further, in assay [5], the “Mean Fluorescence Intensity … at 1000 nM” value is 267 MFI and the “Mean Fluorescence Intensity … at 3000 nM” value is 631 MFI.
